{"source": "patent US20140056902A1", "about": "(Kyowa Kirin, published 2014)", "key": {"[1]": {"target": "T1, N-terminal His-tagged BMP10 expressed by the pLN1V5_human BMP10 vector (human, UniProt O95393 22-424)", "T1 sequence": "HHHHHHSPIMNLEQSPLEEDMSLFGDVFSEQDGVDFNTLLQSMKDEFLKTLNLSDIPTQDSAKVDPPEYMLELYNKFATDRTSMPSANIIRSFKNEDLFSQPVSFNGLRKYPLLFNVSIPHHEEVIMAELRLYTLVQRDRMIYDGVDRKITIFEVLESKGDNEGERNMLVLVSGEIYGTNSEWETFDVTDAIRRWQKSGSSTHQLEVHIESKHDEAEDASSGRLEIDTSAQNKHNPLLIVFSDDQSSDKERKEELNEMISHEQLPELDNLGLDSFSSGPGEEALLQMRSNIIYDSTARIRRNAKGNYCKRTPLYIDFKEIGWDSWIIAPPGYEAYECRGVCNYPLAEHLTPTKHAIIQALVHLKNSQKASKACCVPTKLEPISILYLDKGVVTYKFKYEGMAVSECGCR", "assay": "antigen-immobilized ELISA, antigen coated at 3 ug/mL", "description": "(§1) Antigen immobilized ELISA of the obtained antibodies was performed using the chimeric protein. 3 μg/mL of the recombinant human BMP9, BMP10, and BMP9/10 chimeric proteins of Example 20-2 in 50 mmol/L NaHCO₃ buffer were added to a 96-well plate for ELISA (F96 MAXISORP NUNC-IMMUNO PLATE, manufactured by Thermo Fisher Scientific, Cat#442404) at an amount of 50 μL/well, and left at 4° C. overnight for adsorption.\n(§2) After removal of the reagent for immobilization, 200 μL/well of 1% BSA-PBS was added, and left at room temperature for 1 hour for blocking, and washing was carried out using PBST five times. […]\n(§3) The plate was washed with PBST ten times, and 50 μL/well of the TMB chromogen reagent (TMB+Substrate-Chromogen, manufactured by Dako, Cat#S 1599) was added for chromogenic reaction. When the intensity of chromogenic reaction became strong enough, 50 μL/well of a 1 N sulfuric acid solution (manufactured by Wako, Cat#192-04755) was added, and absorbance at 450 nm and 570 nm was determined using a Multiskan Spectrum (manufactured by Thermo Labsystems)."}, "[2]": {"target": "T2, human BMP9 recombinant protein prepared according to Example 12 of WO 2010/126169 (N-terminal His-tagged … (human, UniProt Q9UK05 320-429; Q9UK05 23-319)", "T2 construct": "not shown: N-terminal His tag", "T2 sequence 1": "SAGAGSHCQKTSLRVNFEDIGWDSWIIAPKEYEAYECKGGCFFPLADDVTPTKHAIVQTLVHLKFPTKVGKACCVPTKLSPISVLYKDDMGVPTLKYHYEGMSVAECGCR", "T2 sequence 2": "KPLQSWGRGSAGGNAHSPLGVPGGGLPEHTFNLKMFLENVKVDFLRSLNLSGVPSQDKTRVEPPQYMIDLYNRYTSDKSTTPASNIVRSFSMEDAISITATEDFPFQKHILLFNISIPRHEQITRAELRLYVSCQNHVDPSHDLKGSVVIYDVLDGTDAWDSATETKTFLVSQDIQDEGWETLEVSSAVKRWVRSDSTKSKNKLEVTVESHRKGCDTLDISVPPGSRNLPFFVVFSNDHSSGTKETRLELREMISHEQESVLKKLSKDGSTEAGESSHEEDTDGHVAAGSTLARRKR", "assay": "SPR (BIAcore 2000), antibody captured on anti-mouse IgG, human BMP9 recombinant protein as analyte, single cycle kinetics", "description": "The binding activity (affinity) of the obtained antibodies to human BMP9 recombinant protein was examined using BIAcore 2000 (manufactured by GE Healthcare). After anti-mouse IgG antibody was immobilized onto a CM5 sensor chip using a Mouse Antibody Capture Kit (manufactured by GE Healthcare), anti-human BMP9 antibody was coupled to an RU value of 700-1100.\nThereafter, 0.152 nmol/L, 0.457 nmol/L, 1.37 nmol/L, 4.1 nmol/L, 12.3 nmol/L, 36.89 nmol/L, 110.67 nmol/L, and […] of the human BMP9 recombinant protein prepared in Example 7-1 were prepared by using an HBS-EP solution (manufactured by GE Healthcare) and added as analytes, and binding affinity was measured.\nBased on the obtained values, the dissociation constant (Kd value) was calculated by single cycle kinetics (BIAevaluation Software ver. 3, manufactured by GE Healthcare)."}, "[3]": {"target": "T3, chimeric protein 5 of human BMP9/10 region C (human, UniProt Q9UK05 320-429; Q9UK05 23-319)", "T3 construct": "Made in the pLN1V5_human BMP9 vector (His-tagged complex); also called Chimera 5; human BMP9/BMP10 chimeric protein 5; not shown: N-terminal His tag", "T3 chain 1": "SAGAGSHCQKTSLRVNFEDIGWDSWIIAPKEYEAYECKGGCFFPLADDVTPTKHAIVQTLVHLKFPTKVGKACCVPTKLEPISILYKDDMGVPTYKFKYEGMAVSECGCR", "T3 chain 2": "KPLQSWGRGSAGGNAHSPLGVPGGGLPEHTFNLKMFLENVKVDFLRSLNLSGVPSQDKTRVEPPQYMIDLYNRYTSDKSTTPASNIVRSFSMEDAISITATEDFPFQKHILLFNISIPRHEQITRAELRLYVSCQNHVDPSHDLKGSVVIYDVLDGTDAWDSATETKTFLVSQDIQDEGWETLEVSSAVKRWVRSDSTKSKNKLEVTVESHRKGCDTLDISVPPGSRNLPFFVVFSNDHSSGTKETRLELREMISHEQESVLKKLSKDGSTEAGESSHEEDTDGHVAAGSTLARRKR", "assay": "antigen-immobilized ELISA, antigen coated at 3 ug/mL, antibody 1000 ng/mL; + = absorbance of 1 or more", "description": "as §1, §2, §3"}, "[4]": {"target": "T4, human mature dimer BMP10 recombinant protein (manufactured by R&D systems, Cat#2926-BP) (human, UniProt O95393 317-424)", "T4 construct": "Bought protein; also called human BMP10", "T4 sequence": "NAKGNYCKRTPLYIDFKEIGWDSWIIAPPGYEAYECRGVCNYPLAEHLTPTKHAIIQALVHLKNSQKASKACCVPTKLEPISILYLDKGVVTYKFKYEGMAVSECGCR", "assay": "ELISA, immobilized antigen (100 ng/mL coat), biotin-labeled antibody at 100 ng/mL, absorbance 450-570 nm", "description": "To examine specificity of the obtained antibodies to human BMP9, their binding ability to human BMP9 and human BMP10 having the highest homology to human BMP9 was tested by comparison. First, 100 ng/mL of human mature dimer BMP9 recombinant protein (manufactured by R&D systems, Cat#3209-BP), or human mature dimer BMP10 recombinant protein (manufactured by R&D systems, Cat#2926-BP) prepared in 50 mmol/L NaHCO₃ buffer (manufactured by Wako, Cat#191-01305) was added to a 96-well plate for ELISA (F96 MAXISORP NUNC-IMMUNO PLATE, manufactured by Thermo Fisher Scientific, Cat#442404) at an amount of 50 μL/well, and left at 4° C. overnight for adsorption.\nSubsequently, 6D10-1-1 antibody, 10D5-2-3 antibody, 3B7-3-3 antibody, R&D antibody, or anti-BMP10 antibody (manufactured by R&D, Cat#MAB2926) that was labeled with biotin using a Biotin Labeling Kit-NH2 (manufactured by COSMO BIO, Cat#LK03) was prepared at a concentration of 100 ng/mL using 10% Super Block in TBST which was prepared by mixing SuperBlock and TBST at a ratio of 1:9. 50 μL/well thereof was aliquoted as a primary antibody, and left at room temperature for 1 hour.\nThe plate was washed with TBST five times, and 50 μL/well of the TMB substrate reagent (TMB+ Substrate-Chromogen, manufactured by Dako, Cat#S1599) was added for color-development. When proper color was developed, 50 μL/well of the 1 N sulfuric acid solution (manufactured by Wako, Cat#192-04755) was added, and absorbance (450 nm-570 nm) at a sample wavelength of 450 nm and at a reference wavelength of 570 nm was determined using a plate reader (manufactured by Spectra Max, Molecular Devices)."}}, "data": [{"binder": "10D5-2-3 antibody (antibody, mouse IgG1, V domains shown, Mouse monoclonal from a BMP9 KO mouse hybridoma; mouse IgG1 heavy chain, kappa light chain) VH: EVKLEESRGGLVQPGGSMKLSCVASGFTFSNYWMNWVRQSPEKGLEWVAHIRLKSDNYATHYAESVRGRFTISRDDSKSSVFLQMNNLRAEDTGIYYCTGGSNYVFAFWGQGTLVTVSA VL: not shown", "values": [{"measurement": "binding result", "setting": "[1]", "result": "no binding"}, {"measurement": "Kd", "setting": "[2]", "result": 9.69, "unit": "pM"}, {"measurement": "Relative binding affinity (to R&D antibody)", "setting": "[2]", "result": 63.6, "unit": "fold"}, {"measurement": "binding result", "setting": "[3]", "result": "binds"}, {"measurement": "binding result", "setting": "[4]", "result": "no binding (tested: 100 ng/mL)"}]}]}
